The chains are these.
B1: Hsp42ΔPrLD (purified) (domain or fragment, S. cerevisiae, UniProt Q12329 100-375, looked up)
chain: MVGDSGTTRQEDGGEDSNSRRYPSYYHCNTARNNRTNQQANSLNDLLTALIGVPPYEGTEPEIEANTEQEGEKGEEKDKKDKSEAPKEEAGETNKEKPLNQLEESSRPPLAKKSSSFAHLQAPSPIPDPLQVSKPETRMDLPFSPEVNVYDTEDTYVVVLALPGANSRAFHIDYHPSSHEMLIKGKIEDRVGIDEKFLKITELKYGAFERTVKFPVLPRIKDEEIKATYNNGLLQIKVPKIVNDTEKPKPKKRIAIEEIPDEELEFEENPNPTVEN
B2: malate dehydrogenase (MDH) (enzyme)
chain: AKVAVLGASGGIGQPLSLLLKNSPLVSRLTLYDIAHTPGVAADLSHIETRATVKGYLGPEQLPDCLKGCDVVVIPAGVPRKPGMTRDDLFNTNATIVATLTAACAQHCPDAMICIISNPVNSTIPITAEVFKKHGVYNPNKIFGVTTLDIVRANAFVAELKGLDPARVSVPVIGGHAGKTIIPLISQCTPKVDFPQDQLSTLTGRIQEAGTEVVKAKAGAGSATLSMAYAGARFVFSLVDAMNGKEGVVECSFVKSQETDCPYFSTPLLLGKKGIEKNLGIGKISPFEEKMIAEAIPELKASIKKGEEFVKNMK
B3: Hsp42ΔIDD (purified) (natural protein, S. cerevisiae, UniProt Q12329 1-375, looked up)
chain: MSFYQPSLSLYDVLNALSNQTGQRGQQGYPRQPQRPQRYHPHYGQVHVGGHHPRHHPLYSRYNGVPNTYYYQFPGQAYYYSPEYGYDDEDGEEEDQDEDSPEVNVYDTEDTYVVVLALPGANSRAFHIDYHPSSHEMLIKGKIEDRVGIDEKFLKITELKYGAFERTVKFPVLPRIKDEEIKATYNNGLLQIKVPKIVNDTEKPKPKKRIAIEEIPDEELEFEENPNPTVEN

The data set “SEC-MALS” deals with the molecule itself. The experiment in a line: SEC-MALS. Background: Size exclusion chromatography separates by hydrodynamic size, large species first.
For data set [1], the target named is Hsp42 WT (purified, C-terminally FLAG-tagged) (S. cerevisiae, UniProt Q12329 1-375). The experiment in a line: HDX-MS.
Data set [2] concerns the target B2. Nature of the data set: HDX-MS.

As for B1, the stoichiometry N (as a rule, the number of molecules, sites or subunits per partner or assembly) in the data set “SEC-MALS” is 4 subunits. Regarding B2, in data set [1], the binding result is on record as “binds”. For B3, in “SEC-MALS”, the “stoichiometry N” value was determined as 36 subunits. Further, in data set [2], the binding result is reported as “binds”.
